B1: KCTD10 (parent)
chain: SSKEEQKLIATSNKPAVKLLYNRS
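Also: lentivirally expressed fusions sorted by FACS into six bins by GFP to DsRed ratio, PSI derived from sequencing read proportions per bin multiplied by bin number.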

Variants of: B1
Experiment: protein stability index of a GFP-peptide fusion (GPS, HEK-293T) (PSI 1-6); higher = more stable
Conditions: c terminus: a fixed tail appended
T11V showed a protein stability index of 3.75. Work on T11Q yielded a protein stability index of 4.15. T11N showed a protein stability index of 3.92. T11A gave a protein stability index of 4.42. T11F gave a protein stability index of 3.63. R23A showed a protein stability index of 3.99. R23D gave a protein stability index of 4.71. With R23V the protein stability index was 3.74. Work on R23Y yielded a protein stability index of 3.32. For R23H, the protein stability index was 3.85. With R23M the protein stability index was 3.35. For R23N, the protein stability index was 4.21. Variant R23P has a protein stability index of 4.21. For R23L, the protein stability index was 3.03. Variant R23T has a protein stability index of 3.7. For R23I, the protein stability index was 3.37. For E4A, the protein stability index was 3.3. For E4C, the protein stability index was 3.55. E4R gave a protein stability index of 3.66. E4W showed a protein stability index of 3.24. E4S gave a protein stability index of 3.99. Work on E4P yielded a protein stability index of 3.64. Variant E4K has a protein stability index of 3.69. Work on E4I yielded a protein stability index of 3.06. With S24P the protein stability index was 4.09. S24W showed a protein stability index of 2.6. Work on S24D yielded a protein stability index of 4.45. In the case of S24I, the protein stability index is reported as 3.22. Variant S24L has a protein stability index of 3.4. Work on S24R yielded a protein stability index of 4.46. With S24G the protein stability index was 4.04. Work on S24Y yielded a protein stability index of 3.48. For S24E, the protein stability index was 4.55. E5H gave a protein stability index of 3.78. In the case of E5T, the protein stability index is reported as 3.82. In the case of E5S, the protein stability index is reported as 3.87. E5D showed a protein stability index of 4.13. With E5V the protein stability index was 2.8. Work on E5M yielded a protein stability index of 2.97. With E5K the protein stability index was 3.35. Q6F gave a protein stability index of 3.15. Work on Q6R yielded a protein stability index of 3.93. Variant Q6D has a protein stability index of 4.5. For Q6L, the protein stability index was 3.59. Work on Q6M yielded a protein stability index of 3.56. With Q6P the protein stability index was 4. For Q6C, the protein stability index was 4.15. Variant Q6Y has a protein stability index of 4.01. With K18F the protein stability index was 2.83. K18W showed a protein stability index of 2.4. K18A showed a protein stability index of 4.05. Variant K18I has a protein stability index of 2.34. With K18C the protein stability index was 4.21. For K18P, the protein stability index was 4.25. For K18H, the protein stability index was 3.89. With K18S the protein stability index was 4.39. K7Y gave a protein stability index of 3.29. Variant K7Q has a protein stability index of 4.25. With K7N the protein stability index was 4.32. In the case of K7T, the protein stability index is reported as 3.87. K7V gave a protein stability index of 3.68. K7F showed a protein stability index of 3.02. Work on K7A yielded a protein stability index of 4.1. In the case of K7P, the protein stability index is reported as 4.39. In the case of L19K, the protein stability index is reported as 4.69. Variant L19T has a protein stability index of 4.95. In the case of L19V, the protein stability index is reported as 4.25. Work on L19E yielded a protein stability index of 4.44. Work on L19R yielded a protein stability index of 4.29. S12M gave a protein stability index of 3.42. S12Q gave a protein stability index of 4.26. For S12K, the protein stability index was 4.27. With S12V the protein stability index was 3.88. In the case of S12C, the protein stability index is reported as 3.81. Work on S12F yielded a protein stability index of 3.34. S12W gave a protein stability index of 2.79. S12Y showed a protein stability index of 3.38. In the case of A16N, the protein stability index is reported as 4.19. A16Y showed a protein stability index of 3.56. In the case of A16R, the protein stability index is reported as 3.8. With A16H the protein stability index was 4.16. For I9N, the protein stability index was 4.36. I9H showed a protein stability index of 3.81. In the case of I9V, the protein stability index is reported as 4.34. With I9F the protein stability index was 4.08. Variant I9G has a protein stability index of 4.54. Variant I9A has a protein stability index of 3.97. For I9C, the protein stability index was 3.91. In the case of I9M, the protein stability index is reported as 3.96. Variant I9K has a protein stability index of 4.39. In the case of Y21Q, the protein stability index is reported as 4.46. For Y21E, the protein stability index was 4.25. With Y21V the protein stability index was 3.67. Variant Y21M has a protein stability index of 4.18. Variant Y21T has a protein stability index of 4.54. Y21R showed a protein stability index of 4.42. With Y21K the protein stability index was 4.68. Work on L20G yielded a protein stability index of 4.73. Work on L20Y yielded a protein stability index of 3.82. In the case of L20I, the protein stability index is reported as 4.6. For L20A, the protein stability index was 4.89. Variant N13W has a protein stability index of 2.67. N13Q showed a protein stability index of 2.95. Variant N13S has a protein stability index of 3.79. Variant N13L has a protein stability index of 3.3. N22Q gave a protein stability index of 4.09. N22P showed a protein stability index of 3.83. With N22R the protein stability index was 4.15. N22V showed a protein stability index of 3.54. A10S gave a protein stability index of 4.01. In the case of A10T, the protein stability index is reported as 4.39. A10C showed a protein stability index of 3.88. For A10Y, the protein stability index was 3.65. For A10G, the protein stability index was 3.86. V17P showed a protein stability index of 4.31. V17M gave a protein stability index of 3.97. In the case of V17S, the protein stability index is reported as 4.3. With V17C the protein stability index was 4.21. For S1P, the protein stability index was 3.98. S1M gave a protein stability index of 4.26. In the case of S1E, the protein stability index is reported as 4.49. Work on S1T yielded a protein stability index of 4.1. L8E gave a protein stability index of 4.96. L8Q gave a protein stability index of 4.6. In the case of L8T, the protein stability index is reported as 4.47. For L8A, the protein stability index was 4.88. Variant L8V has a protein stability index of 4.66. Variant L8F has a protein stability index of 3.51. Work on L8H yielded a protein stability index of 4.46. Work on K14H yielded a protein stability index of 3.59. In the case of K14A, the protein stability index is reported as 3.76. Work on K14C yielded a protein stability index of 3.73. For K14D, the protein stability index was 4.57. Variant K14S has a protein stability index of 4.24. In the case of K14W, the protein stability index is reported as 2.63. With K14V the protein stability index was 3.96. K14G gave a protein stability index of 4.03. For K14Q, the protein stability index was 4.28. K14N showed a protein stability index of 3.96. Work on K14R yielded a protein stability index of 4.2. K3L showed a protein stability index of 4.07. Work on K3M yielded a protein stability index of 4.08. For K3E, the protein stability index was 4.16. Variant K3W has a protein stability index of 3.93. K3S showed a protein stability index of 3.58. Work on K3T yielded a protein stability index of 4.18. With K3V the protein stability index was 3.96. Work on K3I yielded a protein stability index of 3.91. Work on K3C yielded a protein stability index of 3.86. K3N showed a protein stability index of 4.04. In the case of S2Q, the protein stability index is reported as 4.25. S2E showed a protein stability index of 4.43. With S2D the protein stability index was 4.55. S2K gave a protein stability index of 3.97. Variant S2R has a protein stability index of 4.07. In the case of S2T, the protein stability index is reported as 3.86. Variant S2P has a protein stability index of 4.45. Variant S2G has a protein stability index of 4.25. S2H gave a protein stability index of 3.99. S2C gave a protein stability index of 2.83. P15C gave a protein stability index of 2.96. Variant P15K has a protein stability index of 3.39. P15G showed a protein stability index of 4.24. In the case of P15Y, the protein stability index is reported as 3.1. P15A gave a protein stability index of 3.54. With P15S the protein stability index was 4.07. For P15T, the protein stability index was 3.73.

From the supplement of paper PMC10567573
